Data as given in patent US20250262316A1 (BIO THERA SOLUTIONS, published 2025).

Experiments:
[1] = molecular target: T1, B7-H3 on MDA-MB-468 cells (human, UniProt Q5ZPR3); assay: flow cytometry on MDA-MB-468 cells; blank V2-R 0.9%
T1 construct: endogenous, on the cell surface
T1 sequence (cell surface antigen, looked up): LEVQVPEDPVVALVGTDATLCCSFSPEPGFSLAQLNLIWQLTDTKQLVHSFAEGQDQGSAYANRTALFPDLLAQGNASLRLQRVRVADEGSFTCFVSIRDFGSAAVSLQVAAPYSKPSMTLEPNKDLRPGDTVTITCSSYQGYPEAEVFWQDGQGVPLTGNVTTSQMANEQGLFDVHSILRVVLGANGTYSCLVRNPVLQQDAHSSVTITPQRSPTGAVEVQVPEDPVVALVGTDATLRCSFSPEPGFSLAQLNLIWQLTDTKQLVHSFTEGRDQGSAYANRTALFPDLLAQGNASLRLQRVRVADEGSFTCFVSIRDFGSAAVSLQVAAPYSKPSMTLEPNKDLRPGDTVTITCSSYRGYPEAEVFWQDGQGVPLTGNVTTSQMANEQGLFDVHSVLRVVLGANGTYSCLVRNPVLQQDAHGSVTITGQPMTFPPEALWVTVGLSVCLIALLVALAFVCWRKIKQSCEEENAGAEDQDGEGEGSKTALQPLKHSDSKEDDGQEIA

[2] = molecular target: T2, Lag3 (NCBI Reference Sequence: NP_002277.4) on Lag3-CHO cells (UniProt P18627 23-525, limits assumed); assay: flow cytometry on Lag3-CHO cells, PE anti-human IgG Fc secondary
T2 construct: whole, on cells
T2 sequence (looked up): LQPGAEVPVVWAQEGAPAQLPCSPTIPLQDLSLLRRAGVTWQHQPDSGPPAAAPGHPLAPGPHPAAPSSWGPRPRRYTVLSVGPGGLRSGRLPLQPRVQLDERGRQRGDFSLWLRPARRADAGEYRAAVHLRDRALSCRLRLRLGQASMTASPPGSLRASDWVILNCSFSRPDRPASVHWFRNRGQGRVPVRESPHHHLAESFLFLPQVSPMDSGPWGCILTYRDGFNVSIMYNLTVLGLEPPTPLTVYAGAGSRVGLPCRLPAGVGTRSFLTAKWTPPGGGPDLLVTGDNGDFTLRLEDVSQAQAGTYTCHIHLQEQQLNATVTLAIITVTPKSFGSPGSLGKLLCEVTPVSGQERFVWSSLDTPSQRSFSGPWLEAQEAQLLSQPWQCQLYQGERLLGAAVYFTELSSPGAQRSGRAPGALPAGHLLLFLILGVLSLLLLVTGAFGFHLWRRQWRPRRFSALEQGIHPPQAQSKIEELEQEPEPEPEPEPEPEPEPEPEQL

[3] = molecular target: T3, Tim3 (NCBI Reference Sequence: NP_116171.3) on Tim3-CHO cells (UniProt Q8TDQ0 22-301, limits assumed); assay: flow cytometry on Tim3-CHO cells, PE anti-human IgG Fc secondary
T3 construct: whole, on cells

[4] = molecular target: T4, VISTA (NCBI Reference Sequence: NP_071436.1) on VISTA-CHO cells (UniProt Q9H7M9 33-311, limits assumed); assay: flow cytometry on VISTA-CHO cells, PE anti-human IgG Fc secondary
T4 construct: whole, on cells

antigen hB7-H3-His = molecular target: T5, antigen hB7-H3-His (human, UniProt Q5ZPR3 29-461); assay: SPR, BiaCore T200, antibody captured on Protein A chip, hB7-H3-His as analyte, 1:1 model
T5 construct: residues 1-28 are left out on that ground
T5 sequence: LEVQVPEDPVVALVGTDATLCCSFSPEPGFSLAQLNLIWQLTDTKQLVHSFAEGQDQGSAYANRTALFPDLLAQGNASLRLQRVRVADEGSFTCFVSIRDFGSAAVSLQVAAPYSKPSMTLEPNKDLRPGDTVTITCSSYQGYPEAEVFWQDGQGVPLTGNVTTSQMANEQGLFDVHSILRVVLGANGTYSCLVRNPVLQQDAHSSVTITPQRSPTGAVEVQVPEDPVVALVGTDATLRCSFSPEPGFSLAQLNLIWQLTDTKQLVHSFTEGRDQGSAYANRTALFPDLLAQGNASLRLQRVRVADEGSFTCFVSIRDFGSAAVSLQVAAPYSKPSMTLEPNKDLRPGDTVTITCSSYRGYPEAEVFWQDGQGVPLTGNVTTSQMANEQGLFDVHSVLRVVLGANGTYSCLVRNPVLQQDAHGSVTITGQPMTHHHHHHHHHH

[5] = molecular target: T1, B7-H3 on MDA-MB-468 cells; assay: flow cytometry on MDA-MB-468 cells, PE anti-human IgG Fc secondary, antibody from 100 nM in 3-fold dilutions; axis 'Concentration' has no unit, nM from p-1056
hB7-H3-Fc = molecular target: T6, hB7-H3-Fc; assay: ELISA on coated hB7-H3-Fc (2 ug/mL), HRP anti-human kappa secondary, A450, antibody from 300 nM in 3-fold dilutions; axis 'Concentration' has no unit, nM from p-1066
T6 construct: also called antigen hB7-H3-Fc
T6 sequence (fusion chain, as listed by the source limits assumed): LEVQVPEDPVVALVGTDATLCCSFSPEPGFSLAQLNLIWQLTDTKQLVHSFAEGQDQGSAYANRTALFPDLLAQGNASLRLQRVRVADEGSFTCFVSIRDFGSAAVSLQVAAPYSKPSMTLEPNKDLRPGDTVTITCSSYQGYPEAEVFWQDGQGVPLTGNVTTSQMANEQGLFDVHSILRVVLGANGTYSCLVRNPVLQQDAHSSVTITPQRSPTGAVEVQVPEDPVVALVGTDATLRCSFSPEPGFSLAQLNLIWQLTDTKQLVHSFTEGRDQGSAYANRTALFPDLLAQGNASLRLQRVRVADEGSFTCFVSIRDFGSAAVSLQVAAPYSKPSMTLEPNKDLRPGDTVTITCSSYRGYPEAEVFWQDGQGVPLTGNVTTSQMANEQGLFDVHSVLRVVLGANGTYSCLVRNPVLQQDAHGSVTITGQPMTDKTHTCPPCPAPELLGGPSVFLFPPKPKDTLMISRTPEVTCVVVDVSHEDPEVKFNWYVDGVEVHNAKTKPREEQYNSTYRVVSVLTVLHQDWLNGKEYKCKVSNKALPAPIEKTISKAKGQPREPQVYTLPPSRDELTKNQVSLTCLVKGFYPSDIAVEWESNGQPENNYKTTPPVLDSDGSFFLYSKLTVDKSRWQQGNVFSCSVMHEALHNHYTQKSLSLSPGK

[6] = molecular target: T2, Lag3 (NCBI Reference Sequence: …); assay: flow cytometry on Lag3-CHO cells
[7] = molecular target: T3, Tim3 (NCBI Reference Sequence: …); assay: flow cytometry on Tim3-CHO cells
[8] = molecular target: T4, VISTA (NCBI Reference Sequence: …); assay: flow cytometry on VISTA-CHO cells
[9] = molecular target: T2, Lag3 (NCBI Reference Sequence: …); assay: flow cytometry on Lag3-CHO cells; blank P3 0.5%; the filing says V1-V5 did not bind
[10] = molecular target: T3, Tim3 (NCBI Reference Sequence: …); assay: flow cytometry on Tim3-CHO cells; blank P3 0.2%; the filing says V1-V5 did not bind
[11] = molecular target: T4, VISTA (NCBI Reference Sequence: …); assay: flow cytometry on VISTA-CHO cells; blank P3 0.1%; the filing says V1-V5 did not bind

| Binder | % of cells in gate V1-R at 0.411 nM [1] [%] | % of cells in gate V1-R at 1.23 nM [1] [%] | % of cells in gate V1-R at 3.7 nM [1] [%] | % of cells in gate V1-R at 11.11 nM [1] [%] | % of cells in gate V1-R at 33.33 nM [1] [%] | % of cells in gate V1-R at 100 nM [1] [%] | binding result [2] | binding result [3] | binding result [4] | Kd (antigen hB7-H3-His) [nM] | koff (antigen hB7-H3-His) [s⁻¹] | kon (antigen hB7-H3-His) [M⁻¹ s⁻¹] | EC50 [5] [nM] | EC50 (hB7-H3-Fc) [nM] | binding result [6] | binding result [7] | binding result [8] | % of cells in gate P3 at 100 nM [9] [%] | % of cells in gate P3 at 100 nM [10] [%] | % of cells in gate P3 at 100 nM [11] [%] |
| --- | --- | --- | --- | --- | --- | --- | --- | --- | --- | --- | --- | --- | --- | --- | --- | --- | --- | --- | --- | --- |
| Antibody M1 (antibody, human IgG1, kappa, V domains shown, Chimeric antibody: murine variable regions on human IgG1 and light chain constant regions; expressed in HEK293F cells; also called chimeric antibody M1) VH: QVQLQQSGPELVKPGASVRISCKASGYTFTDYDINWVQQRPGQGLEWIGWIFPGDDTTKYNEKFKGRATLTADKSSNTAYMQLNGLTSENSAVYFCARSPSFDYWGQGTLVTVSS VL: QIVLTQSPAIMSASPGERVTMTCSASSTIGFMYWYQQKPGTSPKRWIYDTSKLASGVPARFSVSGSGTSYSLTISSMEAEDAATYYCHQRSSYPTFGGGTKLEIKR | 26.5 | 93.1 | 98.7 | 99.5 | 99.7 | 99.7 | no binding (tested: 100 nM) | no binding (tested: 100 nM) | no binding (tested: 100 nM) | 0.372 | 0.000279 | 750000 | 1.54 | 3.69 |  |  |  |  |  |  |
| Antibody V5 (antibody, human IgG1, kappa, V domains shown, Humanized from chimeric antibody M1; also called humanized antibody V5) VH: QVQLVQSGAEVKKPGASVKVSCKASGYTFTDYDINWVRQAPGQRLEWIGWIFPGDDTTKYNEKFKGRATLTADKSASTAYMELSSLRSEDTAVYYCARSPSFDYWGQGTLVTVSS VL: QIVLTQSPSSLSASVGDRVTITCSASSTIGFMYWYQQKPGKAPKRWIYDTSKLASGVPSRFSVSGSGTDYTLTISSLQPEDFATYYCHQRSSYPTFGQGTKVEIKR | 31.6 | 73.5 | 92.6 | 99.3 | 99.6 | 99.7 |  |  |  |  |  |  |  | 8.24 | no binding (tested: 100 nM) | no binding (tested: 100 nM) | no binding (tested: 100 nM) | 0.4 | 0.1 | 0.2 |
| control Antibody M30-H1-L4 (antibody, human IgG1, kappa, V domains shown, Control anti-B7-H3 antibody) VH: QVQLVQSGAEVKKPGSSVKVSCKASGYTFTNYVMHWVRQAPGQGLEWMGYINPYNDDVKYNEKFKGRVTITADESTSTAYMELSSLRSEDTAVYYCARWGYYGSPLYYFDYWGQGTLVTVSS VL: EIVLTQSPATLSLSPGERATLSCRASSRLIYMHWYQQKPGQAPRPLIYATSNLASGIPARFSGSGSGTDFTLTISSLEPEDFAVYYCQQWNSNPPTFGQGTKVEIKR | 1.1 | 4 | 38.4 | 97.2 | 98.8 | 99.3 | no binding (tested: 100 nM) | no binding (tested: 100 nM) | no binding (tested: 100 nM) | 0.986 | 0.00024 | 244000 | 8.54 | 3.73 |  |  |  |  |  |  |
| Antibody M2 (antibody, human IgG1, kappa, V domains shown, Chimeric antibody: murine variable regions on human IgG1 and light chain constant regions; expressed in HEK293F cells; also called chimeric antibody M2) VH: QVQLQQSGPELVKPGASVRISCKASGYTFTDYDINWVQQRPGQGLEWIGWIFPGDDTTKYNEKFKGRATLTADKSSNTAYMQLNGLTSENSAVYFCARSPSFDYWGQGTLVTVSS VL: DIKMTQSPSSMYASLGERVTITCKASQDINRFLSWFQQKPGKSPKTLIYRANRLRDGVPSRFSGNGSGQDYSLTISSLEYEDMGIYYCLQYDEFPPFTFGSGTKLEIKR |  |  |  |  |  |  |  |  |  | 383 | 0.0491 | 128000 | 69.3 |  |  |  |  |  |  |  |
| Antibody V2 (antibody, human IgG1, kappa, V domains shown, Humanized from chimeric antibody M1; also called humanized antibody V2) VH: EVQLVQSGAEVKKSGESLKISCKASGYTFTDYDINWVRQMPGKGLEWIGWIFPGDDTTKYNEKFKGQVTLSADKSTNTAYMQWSSLKASDTAMYYCARSPSFDYWGQGTLVTVSS VL: QIVLTQSPGTLSLSPGERATLSCSASSTIGFMYWYQQKPGQAPRRWIYDTSKLASGVPDRFSVSGSGTDYTLTISRLEPEDFAVYYCHQRSSYPTFGQGTKVEIKR | 1.2 | 1.3 | 60.1 | 97.8 | 99.7 | 99.4 |  |  |  |  |  |  |  | 2.66 | no binding (tested: 100 nM) | no binding (tested: 100 nM) | no binding (tested: 100 nM) | 5.6 | 1.8 | 1.8 |
| Antibody V1 (antibody, human IgG1, kappa, V domains shown, Humanized from chimeric antibody M1; also called humanized antibody V1) VH: EVQLVQSGAEVKKSGESLKISCKASGYTFTDYDINWVRQMPGKGLEWMGWIFPGDDTTKYNEKFKGQVTISADKSTNTAYLQWSSLKASDTAMYYCARSPSFDYWGQGTLVTVSS VL: QIVLTQSPGTLSLSPGERATLSCSASSTIGFMYWYQQKPGQAPRRWIYDTSKLASGVPDRFSVSGSGTDYTLTISRLEPEDFAVYYCHQRSSYPTFGQGTKVEIKR | 1.4 | 8.6 | 92.7 | 99.5 | 99.6 | 99.7 |  |  |  |  |  |  |  | 3.95 | no binding (tested: 100 nM) | no binding (tested: 100 nM) | no binding (tested: 100 nM) | 3.2 | 1.7 | 0.9 |
